Results published in IntAct's records for PubMed 31000591.

B1: T-lymphocyte activation antigen CD80 (Mus musculus), Q00609 (parent)
chain: MACNCQLMQDTPLLKFPCPRLILLFVLLIRLSQVSSDVDEQLSKSVKDKVLLPCRYNSPHEDESEDRIYWQKHDKVVLSVIAGKLKVWPEYKNRTLYDNTTYSLIILGLVLSDRGTYSCVVQKKERGTYEVKHLALVKLSIKADFSTPNITESGNPSADTKRITCFASGGFPKPRFSWLENGRELPGINTTISQDPESELYTISSQLDFNTTRNHTIKCLIKYGDAHVSEDFTWEKPPEDPPDSKNTLVLFGAGFGAVITVVVIVVIIKCFCKHRSCFRRNEASRETNNSLTFGPEEALAEQTVFL

Variants of: B1
Conditions: with pd1l1_mouse Cd274, Q9EP73
Sequence of pd1l1_mouse Cd274, Q9EP73 (Q9EP73 whole entry): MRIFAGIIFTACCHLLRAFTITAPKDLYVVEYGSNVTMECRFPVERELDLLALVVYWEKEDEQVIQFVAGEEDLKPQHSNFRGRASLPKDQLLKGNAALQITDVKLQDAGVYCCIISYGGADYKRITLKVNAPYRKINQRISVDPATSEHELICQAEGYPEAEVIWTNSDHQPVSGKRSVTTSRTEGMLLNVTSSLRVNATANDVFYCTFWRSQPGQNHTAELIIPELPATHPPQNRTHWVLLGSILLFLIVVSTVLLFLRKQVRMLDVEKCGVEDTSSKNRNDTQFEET

Variant	effect of a mutation on the interaction
L107E	disrupting interaction strength
